# From US20090035322A1 (Regeneron, published 2009)
# Numbering of substitutions follows the chain as printed.
# T1: human CD20 (human, UniProt P11836 1-297)
# T1 sequence: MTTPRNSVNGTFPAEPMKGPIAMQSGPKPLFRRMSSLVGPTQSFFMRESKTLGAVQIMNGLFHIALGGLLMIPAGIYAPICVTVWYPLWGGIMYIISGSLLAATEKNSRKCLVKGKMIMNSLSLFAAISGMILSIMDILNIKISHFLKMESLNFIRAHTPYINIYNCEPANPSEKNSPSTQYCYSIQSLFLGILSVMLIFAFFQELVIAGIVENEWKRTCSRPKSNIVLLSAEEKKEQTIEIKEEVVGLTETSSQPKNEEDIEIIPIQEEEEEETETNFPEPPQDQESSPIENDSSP
# T2: mutant human CD20 #2 (N163D) (human, UniProt P11836 1-297)
# T2 construct: Stably expressed on MG87 cells
# T2 sequence: T1 sequence with N163D
# T3: mutant human CD20 #3 (A170S, P172S) (human, UniProt P11836 1-297)
# T3 construct: Stably expressed on MG87 cells
# T3 chain: T1 sequence with A170S, P172S
# T4: mutant human CD20 #1 (Y77F) (human, UniProt P11836 1-297)
# T4 construct: Human residues replaced by mouse residues; stably expressed on MG87 cells
# T4 sequence: T1 sequence with Y77F
# T5: mutant human CD20 #8 (Y77F, N163D, N166D) (human, UniProt P11836 1-297)
# T5 construct: Stably expressed on MG87 cells
# T5 chain: T1 sequence with Y77F, N163D, N166D
# T6: mutant human CD20 #7 (Y77F, N163D) (human, UniProt P11836 1-297)
# T6 construct: Stably expressed on MG87 cells
# T6 chain: T1 sequence with Y77F, N163D
# T7: mutant human CD20 #10 (A157V) (human, UniProt P11836 1-297)
# T7 construct: Stably expressed on MG87 cells
# T7 sequence: T1 sequence with A157V
# B1: 10F2-13 (antibody, V domains shown)
# VH: EEQLVESGGDLVQPGRSLRLSCAASGFTFHDYTMHWVRQAPGKGLEWVSGISWNSGSLGYADSVKGRFTISRDNAKKSLYLQMNSLRAEDTALYYCAKDPSYGSGSYHSYYGMDVWGQGTTVTVSS
# VL: EIVLTQSPATLSLSPGERATLSCWASQSISRYLVWYQQKCGQAPRLLIYEASKRATGIPVRFSGSGSGTDFTLTISSLESEDFAVYYCQQRFNWPLTFGGGTKVEIK
# notes: Fully human IgG, constant region not specified; also called 10F2-13N; ab 10F2-13
# B2: 3B9-10 (antibody, V domains shown)
# VH: EVQLVESGGGLVQPGRSLRLSCVASGFTFNDYAMHWVRQAPGKGLEWVSVISWNSDSIGYADSVKGRFTISRDNAKNSLYLQMHSLRAEDTALYYCAKDNHYGSGSYYYYQYGMDVWGQGTTVTVSS
# VL: EIVMTQSPATLSVSPGERATLSCRASQSVSSNLAWYQQKPGQAPRLLIYGTSTRATGIPARFSGSGSGTEFTLTISSLQSEDFAVYYCQQYNNWPLTFGGGTKVEIK
# notes: Fully human IgG, constant region not specified; also called 3B9-10N
# B3: 9C3-8 (antibody, V domains shown)
# VH: B2 VH with V23A, T28S, N30H, V50G, I58L, H84N, Y107H, Q111K
# VL: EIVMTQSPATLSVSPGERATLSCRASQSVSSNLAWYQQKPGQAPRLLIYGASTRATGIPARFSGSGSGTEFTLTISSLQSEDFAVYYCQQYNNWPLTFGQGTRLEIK
# notes: Fully human IgG, constant region not specified; also called 9C3-8N
# B4: 8G6-5 (antibody, V domains shown)
# VH: EVQLAESGGDLVQSGRSLRLSCAASGITFHDYAMHWVRQPPGKGLEWVSGISWNSDYIGYADSVKGRFTISRDNAKKSLYLQMNSLRPDDTALYYCVKDFHYGSGSNYGMDVWGQGTTVTVSP
# VL: EIVMTQSPATLSMSPGERATLSCRASQSVSRNLAWYQQKVGQAPRLLISGASTRATGIPARFSGSGSGTEFTLTINSLQSEDFAVYYCQQSNDWPLTFGQGTRLEIK
# notes: Fully human IgG, constant region not specified; also called 8G6-5N
# B5: 6F6-1 (antibody, V domains shown)
# VH: AVQLVESGGGLVQPGRSLRLSCAASGFTFRDYAMHWVRQGPGKGLEWVSGISWNTDYIGYADSVKGRFTISRDNAKNSLYLQMNSLRPEDTALYYCAKDARYGRDNYYGMDVWGQGTTVTVSS
# VL: B2 VL with S31H, T51A, S52Y, A60D, S65T, Y86F
# notes: Fully human IgG, constant region not specified; also called 6F6-1N
# B6: 9E4-20 (antibody, V domains shown)
# VH: B5 VH with A1E, R30Y, G40A, T55S, P88A, D105N, Q115P
# VL: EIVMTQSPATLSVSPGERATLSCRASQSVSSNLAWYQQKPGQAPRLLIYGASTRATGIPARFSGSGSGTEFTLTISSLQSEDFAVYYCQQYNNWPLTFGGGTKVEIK
# notes: Fully human IgG, constant region not specified; also called 9E4-20N
# B7: 7E1-13 (antibody, V domains shown)
# VH: EVQLVESGGGLVQPGRSLRLSCTASGFTFGDFPMHWVRQAPGKGLEWVSGITWNSGSIVYADSVKGRFTISRDNAKNSLYLQMNSLRTEDTALYYCAKDSHYGSGNFYYYYYGMDVWGQGTTVTVSS
# VL: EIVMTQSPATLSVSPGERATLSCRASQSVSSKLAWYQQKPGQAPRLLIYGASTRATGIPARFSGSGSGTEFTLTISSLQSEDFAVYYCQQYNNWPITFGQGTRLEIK
# notes: Fully human IgG, constant region not specified; also called 7E1-13N
# B8: 9D4-7 (antibody, V domains shown)
# VH: EVQLVESGGGLVQPGRSLRLSCAASGFTFYDYAMHWVRQAPGKGLEWVSGISWNSDTIGYADSVKGRFTISRDNAKNSLYLQMNSLRAEDTALYYCTKDGSYGHFYSGLDVWGQGTTVTVSS
# VL: EIVLTQSPATLSLSPGERATLSCRASQSVSSYLAWYQQKPGQAPRLLIYVASNRATGIPARFSGSGSGTDFTLTISSLEPDDFAVYYCQQRYYWPLTFGGGTKVEIK
# notes: Fully human IgG, constant region not specified; also called 9D4-7N
# Target: T1, human CD20
# Experiment: cell-based or functional assay
Binder,"CDC, Daudi EC50 [nM]","CDC, RL EC50 [nM]"
B1,0.17,0.36
B2,1.86,8.84
B3,2.22,11.1
B4,0.21,1.06
B5,0.56,1.2
B6,1.53,1.7
B7,1.59,5.81
B8,0.22,0.83

# Target: T1, human CD20
# Experiment: cell-based or functional assay
# Remark: another data set of the same source
row,Binder,"ADCC EC50 (pM), Daudi + PBMC [pM]"
1,B1,6.68
2,B2,6.77
3,B3,11
4,B4,14.8
5,B5,5.15
6,B6,2.37
7,B7,2.14
8,B8,1.53

# Target: T2, mutant human CD20 #2 (N163D)
# Experiment: FACS, mutant-hCD20 MG87 cells; 100%=best antibody
# Procedure: (§1) Briefly, approximately 1×10⁶ cells from each stably transfected cell line expressing a mutant human CD20 were collected and incubated with each anti-human antibody, at 10 μg/ml, on ice for 1 hr, followed by incubation with APC-conjugated goat anti-human IgG (Jackson Immunolabs), at 10 μg/ml, on ice for 45 min. For each antibody, binding to each mutant human CD20 was assessed by flow cytometry.
row,Binder,Percent of Binding to Mutant Human CD20 [%]
1,B1,54
2,B2,6
3,B3,0
4,B4,45
5,B5,74
6,B6,0
7,B7,49
8,B8,2

# Target: T3, mutant human CD20 #3 (A170S, P172S)
# Experiment: FACS, mutant-hCD20 MG87 cells; 100%=best antibody
# Procedure: as §1
row,Binder,Percent of Binding to Mutant Human CD20 [%]
1,B1,55
2,B2,67
3,B3,84
4,B4,65
5,B5,100
6,B6,57
7,B7,95
8,B8,70

# Target: T4, mutant human CD20 #1 (Y77F)
# Experiment: FACS, mutant-hCD20 MG87 cells; 100%=best antibody
# Procedure: as §1
row,Binder,Percent of Binding to Mutant Human CD20 [%]
1,B1,79
2,B2,56
3,B3,36
4,B4,86
5,B5,100
6,B6,14
7,B7,94
8,B8,67

# Target: T5, mutant human CD20 #8 (Y77F, N163D, …)
# Experiment: FACS, mutant-hCD20 MG87 cells; 100%=best antibody
# Procedure: as §1
row,Binder,Percent of Binding to Mutant Human CD20 [%]
1,B1,0
2,B2,0
3,B3,0
4,B4,0
5,B5,0
6,B6,0
7,B7,0
8,B8,0

# Target: T6, mutant human CD20 #7 (Y77F, N163D)
# Experiment: FACS, mutant-hCD20 MG87 cells; 100%=best antibody
# Procedure: as §1
row,Binder,Percent of Binding to Mutant Human CD20 [%]
1,B1,2
2,B2,1
3,B3,1
4,B4,1
5,B5,2
6,B6,1
7,B7,1
8,B8,2

# Target: T7, mutant human CD20 #10 (A157V)
# Experiment: FACS, mutant-hCD20 MG87 cells; 100%=best antibody
# Procedure: as §1
row,Binder,Percent of Binding to Mutant Human CD20 [%]
1,B1,87
2,B2,79
3,B3,77
4,B4,96
5,B5,98
6,B6,76
7,B7,92
8,B8,75
